{
  "source": "IntAct's records for PubMed 17292842",
  "parents": {"B1": {"name": "Rab guanine nucleotide exchange factor SEC2 (Saccharomyces cerevisiae), P17065 (parent)", "chain": "MDASEEAKRVSIQVTSLSTQLIESVDKQSHLEEQLNKSLKTIASQKAAIENYNQLKEDYNTLKRELSDRDDEVKRLREDIAKENELRTKAEEEADKLNKEVEDLTASLFDEANNMVADARKEKYAIEILNKRLTEQLREKDTLLDTLTLQLKNLKKVMHSLDNESTVTNNSNRYSTILSDSATSSSTSLNKVPTSYSLASQDIYSGIVYSPSISSIRYDISLYNEFLKFVAALPRCENIKATSTESKLIRRLVNDEIQPILKIDNASGIGWLVKKTLLSLIIDGLVVVEPLSGVNATYQIGYNSSSPAKQATSNMPKMFKFPLDSPPVAVHAACSFCGESRDDIIEHARMYILKTLHKTDDGKEQVTNTYPLCHWCLLKLRQTCEIFAFLRSLKVGAWHLEKLTTQNITKEDLEKFSEVTKHTKRDGRVSSQDKKTKRLSFMAGLGINSSTKNKPKMEIFSSETNAKPGQPTTNIQRAWLQLCKLRCILHWTHIGIWAVDDSISSKIGPLVEDDSDEDQNDAISVRLQDKALWKQDAKRPFSSSSAEESQKSDAFDFESGDMENEITGESSSDESSSDGSSTDNSTADSSSEDESSLADSTTSSADSSSPESIDNGEGDDTVTKDDKSSIKSANNNEENSDCGDKKGRSIIKKKAPQRKIQKKKLLQDLDDLEEQFREESAIDQTEFENAESNVKQNISSKRASSGDENSKKDNNEKTLKTNLTIGDKTQEQIGENSPSSGLHASSSNDDNFDDAQEQQ", "partner": "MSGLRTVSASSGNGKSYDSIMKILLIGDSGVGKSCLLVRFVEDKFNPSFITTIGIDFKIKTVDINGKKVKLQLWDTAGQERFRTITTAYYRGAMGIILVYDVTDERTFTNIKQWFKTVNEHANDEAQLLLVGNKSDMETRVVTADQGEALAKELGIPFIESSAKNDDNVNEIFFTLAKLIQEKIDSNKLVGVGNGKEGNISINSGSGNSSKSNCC"}},
  "data": [
    {"variants_of": "B1", "settings": "with sec4_yeast SEC4, P07560", "values": [
      {"variant": "E100A", "effect of a mutation on the interaction": "disrupting interaction"},
      {"variant": "L104A", "effect of a mutation on the interaction": "disrupting interaction"},
      {"variant": "F109A", "effect of a mutation on the interaction": "disrupting interaction"}
    ]}
  ]
}
